How the values were obtained:
Dosimetry of stomach = assay type: in vivo, humans; conditions: for Stomach dose: gastric wall
Description: (§1) Planar whole-body scintigraphy and quantitative SPECT/CT acquisitions of neck/thorax/abdomen/pelvis were acquired with a hybrid SPECT/CT system (Siemens Intevo, Siemens Erlangen, Germany) at 1, 4, 24 and 72 h post injection (p.i.).
A conservative segmentation approach was adopted for gastric dosimetry to ensure that the VOI included all activity distributed in the gastric wall. TACs were analyzed in the same way as for the tumor dosimetry with a mono-exponential model. The average absorbed dose D in the gastric wall was then calculated by using D=N·E/m , where N is the total number of disintegrations, E the average energy deposited in tissue and m = 0.15 kg is the mass of the stomach wall.

Bone marrow dosimetry = assay type: in vivo, humans; conditions: for Bone marrow dose: median
Description: (§2) Bone marrow and kidney dosimetry was performed as described before.

CCK2R positive tumors = conditions: athymic mouse model; cited from earlier work
Excerpt: About 90% of medullary thyroid carcinomas (MTCs) express the transmembrane G protein–coupled cholecystokinin 2 receptor (CCK2R) at a high density, making CCK2R an interesting target for peptide receptor radionuclide therapy (PRRT). Recently, a new generation of radiolabeled minigastrin derivatives, targeting CCK2R, with improved and promising properties was introduced. First clinical trials explore the potential of such compounds for imaging and PRRT of CCK2R expressing tumors, in particular for MTC [3–5]. However, the reported tumor radiation doses were lower than those usuall ...

[1] = Acute toxicity, adverse events graded by CTCAE version 4.03; assay type: in vivo, humans; conditions: all patients, with and without Entresto premedication
Description: (§3) Patients were allowed a light breakfast at the day of each infusion. […] Entresto® was given at an oral dose of 100 mg, containing 48.6 mg sacubitril and 51.4 mg valsartan 2 h before the start of one of the two infusions. Vital signs were recorded, and a 12-lead electrocardiogram was obtained before and after each injection. Adverse events were recorded and graded according to Common Terminology Criteria for Adverse Events (CTCAE) version 4.03.

Dosimetry of kidneys = assay type: in vivo, humans; conditions: for Kidney dose: median
Description: as §1
Kidney dosimetry was performed using the dosimetry workflow in the DRT, which includes automatic organ segmentation, time activity curve modelling, and absorbed dose calculation using the medical internal radiation dosimetry (MIRD) method and voxel dosimetry.
After automatic organ segmentation in the 24 h SPECT images, the kidney VOIs were manually corrected to ensure accurate segmentation. Then, the SPECT images at 1, 4 and 72 h where manually co-registered to the 24 h images. Time activity curves were fitted to the measured kidney activity at the four time points using a single exponential function. The calculated and measured data were then used to estimate the absorbed dose in the kidneys using the MIRD method.
as §2

[2] = In-vivo stability in blood (radio-HPLC of plasma, % intact peptide); design: species or system humans; conditions: for Stability (% of initial signal): in-vivo, plasma radio-HPLC
Description: as §3
Blood samples were collected in polypropylene tubes containing ethylenediaminetetraacetic acid at 5, 15, 30 and 60 min after administration of ^177Lu-PP-F11N. The tubes were placed on ice. Plasma was separated by centrifugation (4000 g for 10 min) and protein precipitation followed using cold methanol (v/v 1/2). The mixture was stirred to favor precipitation of proteins and then centrifuged at 4000 g for 10 min. The supernatant was collected and filtered through a […] filter (Millex®-GV, Merck Millipore, Bedford, MA, USA). The clear solution was diluted with H2O (1:1) and then analyzed by radio-high performance liquid chromatography (HPLC) to determine the percentage of intact peptide over time. HPLCs were performed on the Agilent 1260 infinity instrument (Agilent, Santa Clara, United States) connected to a GABI radioactivity-HPLC-flow-monitor γ-spectrometer (Elysia-raytest, Straubenhardt, Germany).

[3] = Entresto premedication, eight patients

Structure (SMILES): CSCC[C@H](NC(=O)[C@H](Cc1c[nH]c2ccccc12)NC(=O)CNC(=O)[C@H](Cc1ccc(O)cc1)NC(=O)[C@H](C)NC(=O)[C@@H](CCC(=O)O)NC(=O)[C@@H](CCC(=O)O)NC(=O)[C@@H](CCC(=O)O)NC(=O)[C@@H](CCC(=O)O)NC(=O)[C@@H](CCC(=O)O)NC(=O)[C@@H](CCC(=O)O)NC(=O)CN1CCN(CC(=O)O)CCN(CC(=O)O)CCN(CC(=O)O)CC1)C(=O)N[C@@H](CC(=O)O)C(=O)N[C@@H](Cc1ccccc1)C(N)=O [[^177Lu]Lu-PP-F11N, [^177Lu]Lu-DOTA-(DGlu)6-Ala-Tyr-Gly-Trp-Met-Asp-Phe-NH2, metal not drawn]
- Median absorbed dose of stomach after premedication compared to without (Dosimetry of stomach; [3]): 2.1 fold
- Stomach dose (Dosimetry of stomach; with Entresto premedication, median): 0.5 Gy/GBq
- Stomach dose (Dosimetry of stomach; without Entresto premedication, median): 0.2 Gy/GBq
- Stomach dose (Dosimetry of stomach; without Entresto premedication, patient 4): 0.23 Gy/GBq
- Stomach dose (Dosimetry of stomach; without Entresto premedication, patient 7): 0.17 Gy/GBq
- Median absorbed dose of bone marrow after premedication compared to without (Bone marrow dosimetry; [3]): 1.4 fold
- Bone marrow dose (Bone marrow dosimetry; with Entresto premedication): 0.05 Gy/GBq
- Bone marrow dose (Bone marrow dosimetry; without Entresto premedication): 0.03 Gy/GBq
- Increase in tumor uptake on co-injection of phosphoramidon (CCK2R positive tumors): not significant
- Increase in tumor uptake on co-injection of thiorphan (CCK2R positive tumors): only to a minor extent
- Serious adverse events [1]: No serious adverse event
- Median absorbed dose of kidneys after premedication compared to without (Dosimetry of kidneys; [3]): 2.4 fold
- Kidney dose (Dosimetry of kidneys; with Entresto premedication): 0.11 Gy/GBq
- Kidney dose (Dosimetry of kidneys; without Entresto premedication): 0.05 Gy/GBq
- Median stability with Entresto premedication compared to without ([2]; 5 min p.i.): 1.1 fold
- Median stability with Entresto premedication compared to without ([2]; 15 min p.i.): 1.1 fold
- Median stability with Entresto premedication compared to without ([2]; 30 min p.i.): 1.2 fold
- Median stability with Entresto premedication compared to without ([2]; 60 min p.i.): 1.6 fold
- Stability (% of initial signal) ([2]; 5 min p.i., with Entresto premedication (100 mg oral, 2 h before), median of patients): 99.5%
- Stability (% of initial signal) ([2]; 5 min p.i., without Entresto premedication, median of patients): 94.1%
- Stability (% of initial signal) ([2]; 15 min p.i., with Entresto premedication (100 mg oral, 2 h before), median of patients): 92.1%
- Stability (% of initial signal) ([2]; 15 min p.i., without Entresto premedication, median of patients): 80.3%
- Stability (% of initial signal) ([2]; 15 min p.i., without Entresto premedication, patient 1): 69.9%
- Stability (% of initial signal) ([2]; 15 min p.i., without Entresto premedication, patient 2): 80.3%
- Stability (% of initial signal) ([2]; 15 min p.i., without Entresto premedication, patient 3): 91.4%
- Stability (% of initial signal) ([2]; 15 min p.i., without Entresto premedication, patient 4): 90.5%
- Stability (% of initial signal) ([2]; 15 min p.i., without Entresto premedication, patient 5): 88.8%
- Stability (% of initial signal) ([2]; 15 min p.i., without Entresto premedication, patient 6): 90.2%
- Stability (% of initial signal) ([2]; 15 min p.i., without Entresto premedication, patient 7): 71.4%
- Stability (% of initial signal) ([2]; 15 min p.i., without Entresto premedication, patient 8): 68.1%
- Stability (% of initial signal) ([2]; 30 min p.i., with Entresto premedication (100 mg oral, 2 h before), median of patients): 78.5%
- Stability (% of initial signal) ([2]; 30 min p.i., with Entresto premedication (100 mg oral, 2 h before), patient 1): 78.5%
- Stability (% of initial signal) ([2]; 30 min p.i., with Entresto premedication (100 mg oral, 2 h before), patient 2): 85.7%
- Stability (% of initial signal) ([2]; 30 min p.i., with Entresto premedication (100 mg oral, 2 h before), patient 3): 80.6%
- Stability (% of initial signal) ([2]; 30 min p.i., with Entresto premedication (100 mg oral, 2 h before), patient 5): 85.5%
- Stability (% of initial signal) ([2]; 30 min p.i., with Entresto premedication (100 mg oral, 2 h before), patient 6): 77.9%
- Stability (% of initial signal) ([2]; 30 min p.i., with Entresto premedication (100 mg oral, 2 h before), patient 7): 75.3%
- Stability (% of initial signal) ([2]; 30 min p.i., with Entresto premedication (100 mg oral, 2 h before), patient 8): 79.9%
- Stability (% of initial signal) ([2]; 30 min p.i., without Entresto premedication, median of patients): 64.5%
- Stability (% of initial signal) ([2]; 30 min p.i., without Entresto premedication, patient 1): 64.5%
- Stability (% of initial signal) ([2]; 30 min p.i., without Entresto premedication, patient 2): 72.3%
- Stability (% of initial signal) ([2]; 30 min p.i., without Entresto premedication, patient 3): 74.8%
- Stability (% of initial signal) ([2]; 30 min p.i., without Entresto premedication, patient 4): 67.6%
- Stability (% of initial signal) ([2]; 30 min p.i., without Entresto premedication, patient 6): 60.3%
- Stability (% of initial signal) ([2]; 30 min p.i., without Entresto premedication, patient 7): 50.1%
- Stability (% of initial signal) ([2]; 60 min p.i., with Entresto premedication (100 mg oral, 2 h before), median of patients): 64.15%
- Stability (% of initial signal) ([2]; 60 min p.i., without Entresto premedication, median of patients): 41.1%

Source: article PMC10998826 (EJNMMI Research, 2024)
